# The DeepSol protein solubility set
# Experiment: soluble on expression in E. coli; label from the status in PepcDB or PDB records
row,Sequence,soluble on expression in E. coli
1,MAHHHHHHMKAGGGLVALLAQTVVAGDVNACCGVLRRVFSETLQEDRRLTALASNAARSVRRRSHHSAGTAPSFATAPAAATKTLSSSASSSSLSSSSALATSSGPDDVVNFARYAQHQRAQAHSFANAAAQAVLRTSFVPPDGVRPLAVAAAGTKGHPTDAEVPQSHRASSAFGAPTDTPIAQRVWKLARSTLSTDSALVKTSSLHVLCHTAQRTGYWEEALHFCEYLPQSPAPLFLSSLLRPDNVNPILQHCATRGWALDVTNAIRVLAEEHGSWSAALVVAQDAEHRLPCGEAYSLGVLVPYLAVSGATAQARQLFESGLAHGALIDPVLVQQLVMQTATLRQWETCLHMLQCLYRTQETAQLLPADADFFCRLMEVSPGWVTSLQLLHMARASDVKPNERTVAILLTQCDQAGAWREAAAVYDMAVKEDFIDSLAVGSTYHTLVRSFSAIQQWQKALEALSWMSKADDASLTAGMMELVTLCEQSGQWEAALSVGSTLMDSGVHLLSTQTSMALLFLCAKGAQWEFAMRLFDAQLHDVRVDPHPLSLCAVMQACVAARQWEAALRVYDAAKASQPRMVVPPLAHRIAVKACVSAGKWNLAIAVLDATRQDGLPLDNYSQRLGLWAAAIQGQWELSLAFFQGIPRRSRTPQDRMMVRHVTRAISPAVDAIALRFLQSH,not soluble
2,AHHHHHHGSEELIREVILKNLTLNSAGGIGLEELDDGATIPLGDKHLVFTIDGHTVKPIFFPGGDIGRLAVSGTVNDLAVMGAQPLAIASSLIIEEGFEVSELEKILKSMDETAKEVPVPIVTGDTKVVEDRIGIFVITAGVGVAERPISDAGAKVGDVVLVSGTIGDHGIALMSHREGISFETELKSDVAPIWDVVKAVADAIGWENIHAMKDPTRGGLSNALNEMARKANVGILVREEAIPIRPEVKAASEMLGISPYEVANEGKVVMIVAKEYAEEALEAMKKTEKGRDAAIIGEVIGEYRGKVILETGIGGRRFLEPPLGDPVPRVC,soluble
3,MYRVFVFDLDGTLLNDNLEISEKDRRNIEKLSRKCYVVFASGRMLVSTLNVEKKYFKRTFPTIAYNGAIVYLPEEGVILNEKIPPEVAKDIIEYIKPLNVHWQAYIDDVLYSEKDNEEIKSYARHSNVDYRVEPNLSELVSKMGTTKLLLIDTPERLDELKEILSERFKDVVKVFKSFPTYLEIVPKNVDKGKALRFLRERMNWKKEEIVVFGDNENDLFMFEEAGLRVAMENAIEKVKEASDIVTLTNNDSGVSYVLERISTDCLDE,soluble
4,MAHHHHHHMKCFYITEKGKKQNFRNIKLITFDLDHTIWNIDGLLNYADKECYEYMKKNYRRLYDYLQEEYQLSITNLVKQLLENKIEDNNDGVQTLTNMRIDALKFLAKKTNYDEGKFVSEIQELWKEKKNDVHLFISPGTLEYLRELKRRGYTLGAITNGDSDVNGIKFLNEIFTFVIRSMDYNHSKPSVEIFNIAENILKKKNFHFEIHQWMHVGDDVYTDIMGAKNKNINCAWITMFRDGSEVPPNDWYPYLKLKLEENGDSHLSQYDPFADGLFSRFRRRDVVLPYEYIDIE,not soluble
5,MGHHHHHHSHDFIPRGAFGKVYLAQDIKTKKRMACKLIPVDQFKPSDVEIQACFRHENIAELYGAVLWGETVHLFMEAGEGGSVLEKLESCGPMREFEIIWVTKHVLKGLDFLHSKKVIHH,not soluble
6,MGSDKIHHHHHHNEKQDWVGTWTASPQPTWGTDFALPVKMVPKLENQTIRQTVRTSVGGRRFRIVLSNEYSNVPIQIGEIRAARAGEDSKITAGTDRAVTFGGQAKATVPAGAPLVSDPVELPLDALSRLSISVYLPQPTPIATFHWDGKQTAYIGDGNQTASETIAAAQTTDARTLVSEILVDAPANNGAVIAIGDSITDGNGATLDADNRWPDVLAERLVSKQVSVLNAGISGARLLDDAMGVKASARFNRDVLAQPGVKAVILLIGINDISWPGTPFAPEKSLPSLAALTTGYLQLAAQAHAHNLIIVGGTLTPFEGALSGTPLDAYYTPEKEALRQKVNNWIRTSGAFDAVVDFDLLLRDPLHPTRLLPEFDSGDHLHPGDKGNRAMAEAIDLGQLIKN,not soluble
7,FCLTLRRRYTMGHHHHHHHHHHSSGHIEGRHMKLEQTLTLSPNLIGFNSNEGEKLLLTSRSREDFFPLSMQFVTQVNQAYCGVASIIMVLNSLGINAPETAQYSPYRVFTQDNFFSNEKTKAVIAPEVVARQGMTLDELGRLIASYGVKVKVNHASDTNIEDFRKQVAENLKQDGNFVIVNYLRKEIGQERGGHISPLAAYNEQTDRFLIMDVSRYKYPPVWVKTTDLWKAMNTVDSVSQKTRGFVFVSKTQDD,soluble
8,PAVLELEGKKWRVENQENVSNLVIEDTELKQVAYIYKCVNTTLQIKGKINSITVDNCKKLGLVFDDVVGIVEIINSKDVKVQVMGKVPTISINKTDGCHAYLSKNSLDCEIVSAKSSEMNVLIPTEGGDFNEFPVPEQFKTLWNGQKLVTTVTEIAG,soluble
